From patent publication US20190240316A1

Columns and labels:
[1] = molecular target: RSV strain A2 F protein, pre-fusion-stabilized DS-Cav1 (human respiratory syncytial virus subgroup A strain A2) (UniProt P03420); assay: ELISA on coated antigen
[2] = molecular target: RSV strain A2 F protein, pre-fusion-stabilized SC-TM (human respiratory syncytial virus strain A2) (UniProt P03420); assay: ELISA on coated antigen

Question: With mAb D25 (antibody) as the substance, how does the EC50 [1] read?
Answer: 0.089 µg/mL

Question: With motavizumab (antibody) as the substance, how does the EC50 [1] read?
Answer: 0.037 µg/mL

Question: And the EC50 [2]?
Answer: 0.028 µg/mL
